Laboratory results: the supplement of paper PMC9732359
± gives the uncertainty stated by the source.

Assay: protein stability index of a GFP-peptide fusion (yeast GPS) (PSI 1-4); higher = more stable; sorted into four equal gates, so the index is relative within each strain
How it was run: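 Tiled yeast protein peptides of 17 residues were each joined downstream of GFP, on plasmids that also express Cherry. The pooled library was maintained in yeast, and mid-log cultures in leucine-free medium were sorted into four equal gates on the GFP/Cherry ratio. Plasmids from every gate were amplified by PCR and sequenced on Illumina, with barcodes linking reads to strains. The protein stability index of a peptide is its gate-number-weighted read frequency summed over the gates.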

LICPQYGTENKDGEDII [CSL4]
protein stability index (doa10∆): 3.23 ± 0.15
protein stability index (pdr5∆): 3.41 ± 0.13
protein stability index (san1∆): 3.12 ± 0.14
protein stability index (ubr1∆): 3.28 ± 0.13

INLRKVAEKMNGCSGAD [RPT6]
protein stability index (doa10∆): 2.45 ± 0.15
protein stability index (pdr5∆): 2.25 ± 0.28
protein stability index (san1∆): 2.38 ± 0.13
protein stability index (ubr1∆): 3.07 ± 0.29

STAIKSLVALGIDPQDL [CDC53]
protein stability index (doa10∆): 2.29 ± 0.077
protein stability index (pdr5∆): 2.67 ± 0.066
protein stability index (san1∆): 2.81 ± 0.053
protein stability index (ubr1∆): 2.45 ± 0.049

AATIGANFIFSPASGIV [RPT4]
protein stability index (doa10∆): 2.56 ± 0.061
protein stability index (pdr5∆): 2.66 ± 0.055
protein stability index (san1∆): 1.84 ± 0.1
protein stability index (ubr1∆): 2.18 ± 0.083

PTFSTHAQLLLSDRITG [PRP8]
protein stability index (doa10∆): 1.7 ± 0.033
protein stability index (pdr5∆): 1.87 ± 0.036
protein stability index (san1∆): 1.57 ± 0.051
protein stability index (ubr1∆): 1.95 ± 0.031

IALNLDTTVNDCLDKLL [SNF2]
protein stability index (doa10∆): 2.54 ± 0.14
protein stability index (pdr5∆): 3.06 ± 0.14
protein stability index (san1∆): 2.65 ± 0.1
protein stability index (ubr1∆): 2.9 ± 0.073

EDVLSSFYRVEKIKKIN [SSN2]
protein stability index (doa10∆): 1.7 ± 0.28
protein stability index (pdr5∆): 1.13 ± 0.074
protein stability index (san1∆): 1.24 ± 0.28
protein stability index (ubr1∆): 1.16 ± 0.089

SYPILNESSTFLKLVLS [SIN4]
protein stability index (doa10∆): 1.97 ± 0.035
protein stability index (pdr5∆): 2.27 ± 0.034
protein stability index (san1∆): 2.11 ± 0.05
protein stability index (ubr1∆): 2.22 ± 0.031

INPESREIVMPAHTKYM [ITC1]
protein stability index (doa10∆): 1.63 ± 0.17
protein stability index (pdr5∆): 1.5 ± 0.2
protein stability index (san1∆): 1.69 ± 0.14
protein stability index (ubr1∆): 2.18 ± 0.11

SNMILGSVELSTGDYTF [YML103C/NUP188]
protein stability index (doa10∆): 2.48 ± 0.055
protein stability index (pdr5∆): 2.35 ± 0.065
protein stability index (san1∆): 2.16 ± 0.077
protein stability index (ubr1∆): 2.43 ± 0.037

IAFDDLIENKIQNKKIQ [RPN8]
protein stability index (doa10∆): 2.54 ± 0.07
protein stability index (pdr5∆): 2.25 ± 0.081
protein stability index (san1∆): 2.57 ± 0.066
protein stability index (ubr1∆): 2.71 ± 0.05

DDENNPSHYPHPYEYEI [RRP6]
protein stability index (doa10∆): 3.03 ± 0.064
protein stability index (pdr5∆): 2.89 ± 0.063
protein stability index (san1∆): 2.74 ± 0.054
protein stability index (ubr1∆): 2.89 ± 0.029

RGAWGKPHGLAARVDIG [RPL10]
protein stability index (doa10∆): 2.59 ± 0.064
protein stability index (pdr5∆): 1.99 ± 0.04
protein stability index (san1∆): 1.68 ± 0.08
protein stability index (ubr1∆): 2.35 ± 0.037

VINPQQLLKGLSLSFSK [DSN1]
protein stability index (doa10∆): 3.2 ± 0.11
protein stability index (pdr5∆): 3.1 ± 0.089
protein stability index (san1∆): 2.54 ± 0.086
protein stability index (ubr1∆): 3.12 ± 0.1

DAAAEKRNGDEVYTLVD [ARP7]
protein stability index (doa10∆): 3.28 ± 0.074
protein stability index (pdr5∆): 3.35 ± 0.063
protein stability index (san1∆): 3.42 ± 0.046
protein stability index (ubr1∆): 3.06 ± 0.056

SRSRSSIRSISPAGKYK [ESC2]
protein stability index (doa10∆): 2.84 ± 0.14
protein stability index (pdr5∆): 2.96 ± 0.099
protein stability index (san1∆): 3.17 ± 0.064
protein stability index (ubr1∆): 3.14 ± 0.085

TRAGGLGINLVTADTVI [ISW2]
protein stability index (doa10∆): 2.19 ± 0.061
protein stability index (pdr5∆): 2.13 ± 0.054
protein stability index (san1∆): 2.12 ± 0.1
protein stability index (ubr1∆): 2.89 ± 0.096

KNKPELYQIDYLGTKVE [PRE1]
protein stability index (doa10∆): 2.82 ± 0.091
protein stability index (pdr5∆): 2.95 ± 0.1
protein stability index (san1∆): 3.09 ± 0.064
protein stability index (ubr1∆): 3.16 ± 0.089

ANSQIQAYEEIISSNEN [YIL149C/MLP2]
protein stability index (doa10∆): 2.95 ± 0.19
protein stability index (pdr5∆): 3.46 ± 0.17
protein stability index (san1∆): 3.31 ± 0.22
protein stability index (ubr1∆): 3.45 ± 0.12

GGFEYFLQPLLLVGLIK [NUT1]
protein stability index (doa10∆): 1.46 ± 0.056
protein stability index (pdr5∆): 1.52 ± 0.063
protein stability index (san1∆): 1.37 ± 0.11
protein stability index (ubr1∆): 1.87 ± 0.12

LAMVIIKEFVDDLKKDH [DSN1]
protein stability index (doa10∆): 2.74 ± 0.2
protein stability index (pdr5∆): 2.92 ± 0.16
protein stability index (san1∆): 2.88 ± 0.12
protein stability index (ubr1∆): 2.85 ± 0.085

SQSSNANICLTFLESIN [SIN4]
protein stability index (doa10∆): 2.42 ± 0.048
protein stability index (pdr5∆): 2.61 ± 0.054
protein stability index (san1∆): 2.55 ± 0.05
protein stability index (ubr1∆): 2.74 ± 0.048

GKYTLGYKSTVKSLRQG [RPL30]
protein stability index (doa10∆): 2.25 ± 0.072
protein stability index (pdr5∆): 2.34 ± 0.049
protein stability index (san1∆): 2.54 ± 0.09
protein stability index (ubr1∆): 2.47 ± 0.048

SPMGNAYSMGAQNQGGQ [PGD1]
protein stability index (doa10∆): 2.57 ± 0.062
protein stability index (pdr5∆): 2.91 ± 0.069
protein stability index (san1∆): 2.91 ± 0.064
protein stability index (ubr1∆): 2.71 ± 0.043

TDKKAFLGALKYLPHAI [PRP8]
protein stability index (doa10∆): 2.94 ± 0.12
protein stability index (pdr5∆): 2.92 ± 0.097
protein stability index (san1∆): 3.19 ± 0.072
protein stability index (ubr1∆): 2.96 ± 0.054

LDPLEVHMLDFPNIAIR [PRP8]
protein stability index (doa10∆): 2.74 ± 0.059
protein stability index (pdr5∆): 2.79 ± 0.056
protein stability index (san1∆): 2.84 ± 0.051
protein stability index (ubr1∆): 2.88 ± 0.043

LPLTEHKSPNLSLMLES [SRB4]
protein stability index (doa10∆): 2.43 ± 0.066
protein stability index (pdr5∆): 3.18 ± 0.06
protein stability index (san1∆): 2.39 ± 0.11
protein stability index (ubr1∆): 2.75 ± 0.06

AVDLEHHDYRSYYGIVC [RRP6]
protein stability index (doa10∆): 2.5 ± 0.067
protein stability index (pdr5∆): 2.77 ± 0.049
protein stability index (san1∆): 2.37 ± 0.083
protein stability index (ubr1∆): 2.97 ± 0.038

QVSNFAPQVYIITKNEN [GAL11]
protein stability index (doa10∆): 2.96 ± 0.16
protein stability index (pdr5∆): 1.98 ± 0.11
protein stability index (san1∆): 2.38 ± 0.26
protein stability index (ubr1∆): 1.67 ± 0.084

FGKTGDQKETKKGESEK [YOR098C/NUP1]
protein stability index (doa10∆): 3.4 ± 0.1
protein stability index (pdr5∆): 3.4 ± 0.11
protein stability index (san1∆): 3.45 ± 0.076
protein stability index (ubr1∆): 3.35 ± 0.061

PVGSYEREQCRAGGAAA [PRE7]
protein stability index (doa10∆): 3.02 ± 0.24
protein stability index (pdr5∆): 2.98 ± 0.18
protein stability index (san1∆): 3.32 ± 0.17
protein stability index (ubr1∆): 2.78 ± 0.097

GMIVISMENYHLLIKII [SRB8]
protein stability index (doa10∆): 1.96 ± 0.043
protein stability index (pdr5∆): 2.04 ± 0.044
protein stability index (san1∆): 2.71 ± 0.048
protein stability index (ubr1∆): 2.66 ± 0.045

LEEDSKKVNGTSYKKWS [PRP8]
protein stability index (doa10∆): 3.3 ± 0.14
protein stability index (pdr5∆): 3.41 ± 0.15
protein stability index (san1∆): 3.24 ± 0.075
protein stability index (ubr1∆): 3.03 ± 0.092

VLDVDPKYAKQKDKSDT [ISW2]
protein stability index (doa10∆): 2.91 ± 0.11
protein stability index (pdr5∆): 3.01 ± 0.069
protein stability index (san1∆): 3.05 ± 0.14
protein stability index (ubr1∆): 3.03 ± 0.084

DTFELIKTFLVDLTSSN [YDL116W/NUP84]
protein stability index (doa10∆): 2.69 ± 0.07
protein stability index (pdr5∆): 3.19 ± 0.073
protein stability index (san1∆): 2.55 ± 0.08
protein stability index (ubr1∆): 3.1 ± 0.046

VAGGKKALAIFVPVPSL [RPS7A]
protein stability index (doa10∆): 2.49 ± 0.056
protein stability index (pdr5∆): 1.53 ± 0.047
protein stability index (san1∆): 1.7 ± 0.088
protein stability index (ubr1∆): 1.54 ± 0.043

DDFFKELAKEAKKSTTI [ESC2]
protein stability index (doa10∆): 3.17 ± 0.12
protein stability index (pdr5∆): 3.09 ± 0.12
protein stability index (san1∆): 2.97 ± 0.094
protein stability index (ubr1∆): 3.36 ± 0.091

QNCWSLINDSYINDVHL [SSN8]
protein stability index (doa10∆): 3.35 ± 0.063
protein stability index (pdr5∆): 3.22 ± 0.069
protein stability index (san1∆): 3.34 ± 0.054
protein stability index (ubr1∆): 3.23 ± 0.055

TANALPLPAVFSAPIRP [RPL4A]
protein stability index (doa10∆): 1.79 ± 0.042
protein stability index (pdr5∆): 2.1 ± 0.042
protein stability index (san1∆): 1.87 ± 0.065
protein stability index (ubr1∆): 1.98 ± 0.04

HKSPNLSLMLESPNYCN [SRB4]
protein stability index (doa10∆): 2.28 ± 0.078
protein stability index (pdr5∆): 2.65 ± 0.1
protein stability index (san1∆): 2.64 ± 0.095
protein stability index (ubr1∆): 2.71 ± 0.06

VTFSPTGRLFQVEYALE [PRE5]
protein stability index (doa10∆): 3.28 ± 0.099
protein stability index (pdr5∆): 2.77 ± 0.12
protein stability index (san1∆): 2.93 ± 0.23
protein stability index (ubr1∆): 2.79 ± 0.062

GNIISSDKTIVPTSIQT [SIN4]
protein stability index (doa10∆): 2.42 ± 0.061
protein stability index (pdr5∆): 2.61 ± 0.054
protein stability index (san1∆): 2.1 ± 0.076
protein stability index (ubr1∆): 2.77 ± 0.051

SLTISLYASDYASYFPY [RPN7]
protein stability index (doa10∆): 1.42 ± 0.036
protein stability index (pdr5∆): 1.64 ± 0.035
protein stability index (san1∆): 1.6 ± 0.049
protein stability index (ubr1∆): 1.67 ± 0.028

QQMQPPNSSANNNPLQQ [GAL11]
protein stability index (doa10∆): 3.02 ± 0.055
protein stability index (pdr5∆): 2.9 ± 0.05
protein stability index (san1∆): 2.89 ± 0.041
protein stability index (ubr1∆): 2.95 ± 0.048

DLCSLKPYVDRFAFSVI [DIS3]
protein stability index (doa10∆): 1.93 ± 0.05
protein stability index (pdr5∆): 1.87 ± 0.052
protein stability index (san1∆): 1.93 ± 0.065
protein stability index (ubr1∆): 2.27 ± 0.04

SGQKTNRQVMHKMGVER [SIR3]
protein stability index (doa10∆): 3.08 ± 0.21
protein stability index (pdr5∆): 3.75 ± 0.18
protein stability index (san1∆): 3.4 ± 0.25
protein stability index (ubr1∆): 3.27 ± 0.22

LTDLDSPSEFVDVAIPC [RPS0A]
protein stability index (doa10∆): 2.77 ± 0.091
protein stability index (pdr5∆): 2.46 ± 0.073
protein stability index (san1∆): 2.31 ± 0.077
protein stability index (ubr1∆): 2.56 ± 0.063

YEYGAVSVLLISKDCSA [BRR2]
protein stability index (doa10∆): 2.12 ± 0.047
protein stability index (pdr5∆): 1.97 ± 0.043
protein stability index (san1∆): 1.91 ± 0.081
protein stability index (ubr1∆): 1.81 ± 0.041

EEYARRLAEFKRRKLDL [SMC4]
protein stability index (doa10∆): 3.13 ± 0.13
protein stability index (pdr5∆): 3.46 ± 0.12
protein stability index (san1∆): 2.72 ± 0.1
protein stability index (ubr1∆): 3.31 ± 0.08

IISSNENALIELKNELA [YIL149C/MLP2]
protein stability index (doa10∆): 2.53 ± 0.15
protein stability index (pdr5∆): 2.93 ± 0.077
protein stability index (san1∆): 2.71 ± 0.14
protein stability index (ubr1∆): 3.07 ± 0.12

GKLKRCSRCGSVTRAGN [SIN4]
protein stability index (ubr1∆): 3.34 ± 0.16

MAVGKNKRLSKGKKGQK [RPS1A]
protein stability index (doa10∆): 1.5 ± 0.14
protein stability index (pdr5∆): 1.62 ± 0.086
protein stability index (san1∆): 1.65 ± 0.15
protein stability index (ubr1∆): 1.45 ± 0.12

DIEVPDVNALKFNNTQR [SNF12]
protein stability index (doa10∆): 2.97 ± 0.1
protein stability index (pdr5∆): 3.29 ± 0.06
protein stability index (san1∆): 2.98 ± 0.047
protein stability index (ubr1∆): 3.09 ± 0.051

DHKYVCTFSMEPYHFIS [SRB8]
protein stability index (doa10∆): 2.37 ± 0.061
protein stability index (pdr5∆): 2.03 ± 0.047
protein stability index (san1∆): 1.83 ± 0.059
protein stability index (ubr1∆): 2.09 ± 0.043

SEDDSESGKVFIGRLPI [RPB2]
protein stability index (doa10∆): 3.36 ± 0.08
protein stability index (pdr5∆): 3.19 ± 0.073
protein stability index (san1∆): 3.31 ± 0.055
protein stability index (ubr1∆): 3.29 ± 0.043
